Ends that are not written are not given here.
T1: ligand-binding b1b2 domain of the cell and tissue penetration receptor NRP-1 (UniProt O14786 273-586, limits assumed)
T1 construct: domain: b1b2; Coated on magnetic beads; also called NRP-1 b1b2; NRP-1 b1b2 domain
T1 sequence (looked up): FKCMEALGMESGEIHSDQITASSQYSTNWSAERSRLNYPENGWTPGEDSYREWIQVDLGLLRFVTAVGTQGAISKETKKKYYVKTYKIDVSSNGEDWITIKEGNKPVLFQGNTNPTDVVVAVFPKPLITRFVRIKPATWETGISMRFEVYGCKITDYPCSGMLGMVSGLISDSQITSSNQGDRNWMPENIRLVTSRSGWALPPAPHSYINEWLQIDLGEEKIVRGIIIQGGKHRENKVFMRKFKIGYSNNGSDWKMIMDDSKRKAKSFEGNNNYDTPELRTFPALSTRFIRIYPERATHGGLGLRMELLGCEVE

T2: NRP-1 (control protein in the fluorescence polarization assay) (UniProt O14786 273-586, limits assumed)
T2 construct: also called neuropilin-1
T2 sequence (looked up): T1 sequence (looked up)

T3: recombinant 6x-His-tagged p32 protein (gC1qR/p32) (UniProt Q07021 74-282)
T3 construct: Predominantly (>97%) a trimer by sedimentation velocity; also called gC1q/p32 receptor; recombinant p32
T3 sequence (looked up): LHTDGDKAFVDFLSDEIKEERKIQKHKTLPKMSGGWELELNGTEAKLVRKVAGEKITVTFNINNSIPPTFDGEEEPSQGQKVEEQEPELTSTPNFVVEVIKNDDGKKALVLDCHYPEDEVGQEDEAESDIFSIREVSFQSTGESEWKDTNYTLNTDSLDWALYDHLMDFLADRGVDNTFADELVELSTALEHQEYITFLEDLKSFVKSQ

B1: uPA-treated T7 phage displaying the TT1 peptide (peptide)
peptide: CKRGAR
modifications: not fully specified
notes: not shown: T7 phage capsid (display carrier)
B2: synthetic TT1 Peptide CKRGARSTC (SEQ ID NO: 3), cyclic (peptide)
peptide: CKRGARSTC
modifications: also: cyclic (CycTT1), ring type not given here, used labeled and unlabeled, label and position not given here
notes: Free synthetic peptide used in fluorescence polarization assays; also called CycTT1; cyclic TT1 Peptide
B3: T7 phage displaying RMRRIDR (SEQ ID NO: 190) (peptide)
peptide: RMRRIDR
notes: also called phage clone selected on NRP-1 b1b2 domain
B4: T7 phage displaying SRLGRMR (SEQ ID NO: 193) (peptide)
peptide: SRLGRMR
notes: as for B3
B5: T7 phage displaying SMNEVRKR (SEQ ID NO: 192) (peptide)
peptide: SMNEVRKR
notes: as for B3
B6: T7 phage displaying SGVSRDR (SEQ ID NO: 191) (peptide)
peptide: SGVSRDR
notes: as for B3
B7: T7 phage displaying CTRGSRSKC (SEQ ID NO: 177) (peptide)
peptide: CTRGSRSKC
modifications: not fully specified (bridges); cysteine pairing not given here; also: displayed on T7 phage
notes: also called RGXRS-displaying phage
B8: T7 phage displaying CARGKRSLC (SEQ ID NO: 184) (peptide)
peptide: CARGKRSLC
modifications: not fully specified (bridges); cysteine pairing not given here; also: displayed on T7 phage
notes: as for B7
B9: T7 phage displaying CKRGNRSVC (SEQ ID NO: 178) (peptide)
peptide: CKRGNRSVC
modifications: not fully specified (bridges); cysteine pairing not given here; also: displayed on T7 phage
notes: as for B7
B10: T7 phage displaying the TT1 peptide CKRGARSTC (SEQ ID NO: 3) (peptide)
peptide: CKRGARSTC
notes: The phage protein it is fused to is not described; also called TT1 phage; TT phage
B11: T7 phage displaying GRGGRSRKLAAALE (SEQ ID NO: 161) (peptide)
peptide: GRGGRSRKLAAALE
notes: the C-terminal KLAAALE element is encoded by the phage genomic DNA; also called RGXRS-displaying phage
B12: T7 phage displaying CKRGSRSSC (SEQ ID NO: 181) (peptide)
peptide: CKRGSRSSC
modifications: not fully specified (bridges); cysteine pairing not given here; also: displayed on T7 phage
notes: as for B7
B13: T7 phage displaying CQRGTRSRC (SEQ ID NO: 182) (peptide)
peptide: CQRGTRSRC
modifications: not fully specified (bridges); cysteine pairing not given here; also: displayed on T7 phage
notes: as for B7
B14: T7 phage displaying CARGARTKC (SEQ ID NO: 176) (peptide)
peptide: CARGARTKC
modifications: not fully specified (bridges); cysteine pairing not given here; also: displayed on T7 phage
notes: carries RGART rather than RGXRS
B15: T7 phage displaying CVRGGRARC (SEQ ID NO: 183) (peptide)
peptide: CVRGGRARC
modifications: not fully specified (bridges); cysteine pairing not given here; also: displayed on T7 phage
notes: carries RGGRA rather than RGXRS

target: T1, ligand-binding b1b2 domain of the cell …; assay: uPA-treated T7 phage binding to NRP-1 b1b2; reference untreated phage

Binder | fold enhancement of binding [fold]
B1 | 180

target: T2, NRP-1 (control protein in the …); assay: fluorescence polarization assay with synthetic peptide, NRP-1 as control protein

Binder | binding result
B2 | no binding

target: T3, recombinant 6x-His-tagged p32 protein …; assay: T7 phage clone binding to immobilized p32 (FIG. 3)

Binder | binding result
B3 | no binding
B4 | no binding
B5 | no binding
B6 | no binding

target: T4, BSA (UniProt P02769 25-607); assay: T7 phage clone binding to protein-coated magnetic beads
T4 construct: Control protein on beads
T4 sequence (P02769 25-607 limits assumed): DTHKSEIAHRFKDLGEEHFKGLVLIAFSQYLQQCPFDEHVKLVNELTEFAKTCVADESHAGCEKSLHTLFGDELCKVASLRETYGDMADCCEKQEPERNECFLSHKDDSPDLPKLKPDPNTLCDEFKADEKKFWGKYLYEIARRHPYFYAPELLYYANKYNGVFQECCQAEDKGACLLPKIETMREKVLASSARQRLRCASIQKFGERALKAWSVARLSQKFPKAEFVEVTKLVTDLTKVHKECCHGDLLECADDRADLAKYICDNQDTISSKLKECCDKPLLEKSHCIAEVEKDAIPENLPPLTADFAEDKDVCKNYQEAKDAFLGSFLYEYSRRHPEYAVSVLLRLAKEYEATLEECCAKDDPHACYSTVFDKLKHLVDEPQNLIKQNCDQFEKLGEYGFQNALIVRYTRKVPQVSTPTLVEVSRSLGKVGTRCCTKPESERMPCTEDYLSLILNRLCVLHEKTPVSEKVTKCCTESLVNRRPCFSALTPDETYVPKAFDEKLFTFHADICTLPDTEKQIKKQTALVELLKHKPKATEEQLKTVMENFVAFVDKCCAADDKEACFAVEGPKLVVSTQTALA

Binder | binding result
B7 | no binding
RKRGGRS (also called RGXRS-displaying phage) [T7 phage displaying RKRGGRS (SEQ ID NO: 166)] | no binding
B8 | no binding
B9 | no binding
B10 | no binding
B11 | no binding
B12 | no binding
B13 | no binding

target: T1, ligand-binding b1b2 domain of the cell …; assay: as above

Binder | binding result
B7 | no binding
RKRGGRS (also called RGXRS-displaying phage) [T7 phage displaying RKRGGRS (SEQ ID NO: 166)] | no binding
B8 | no binding
B9 | no binding
B10 | no binding
B14 | no binding
B11 | no binding
B12 | no binding
B13 | no binding
B15 | no binding

target: T3, recombinant 6x-His-tagged p32 protein …; assay: T7 phage binding to immobilized p32; reference LyP-1-displaying phage

Binder | fold stronger phage binding than the LyP-1 peptide [fold]
B10 | ~15

— patent US20210188909A1 (SANFORD BURNHAM PREBYS MEDICAL DISCOVERY INSTITUTE, published 2021)
